Earlier results in PMC8297464.

Columns and labels:
ACE2 (Homo sapiens) = ACE2 (Homo sapiens) (UniProt Q9BYF1)
[1] = target: Spike RBD RBD (SARS-CoV-2) (UniProt P0DTC2)

Sequence of Human defensin 5 (Q01523 63-94): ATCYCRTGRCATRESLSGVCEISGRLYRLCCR

| Substance | Kd (ACE2 (Homo sapiens)) [nM] | Kd [1] [nM] |
| --- | --- | --- |
| Human defensin 5 (from UniProt Q01523) | 39.3 |  |
| SBP1 α1 helix 23-mer (from UniProt Q9BYF1) |  | 47 |
